# Reference: the DeepSol protein solubility set
# Experiment: soluble on expression in E. coli; label from the status in PepcDB or PDB records
row,Sequence,soluble on expression in E. coli
1,MGSDKIHHHHHHMIPRNEYLENLISFRDKQLIKVVTGIRRCGKSTLFELYQDYLLQNDVKPEQIIAFNLEDGDWAEIENSKDLYELVKARLLPDRMNYVFLDEVQRVTDFQKAVDSLFIKKNCDVYITGSNAYLLSGELATLLSGRYVEIKMLPLSFKEYVSAFPPDSSIDRLYQDYIHNSSFPYTLELKRQKDIRQYLDGLYDSIVLKDIVARRRFPDLAMLQSVVRFLFDNIGNLCSTKKIADTMTSAGRKITVHTVESYLTALTDSFIFYRVGRYDVKGKQYLKTGDKYYAADMGLRYNALGTKKADAGHILENIVYLELLRRGYEVHIGKVGAAEIDFIAIGPEGEEYYQVAYTVMDADGKTLQRELAPLDAISDHNPKFLLTMDHGPLVSHNGIKQLNALDWLLK,not soluble
2,MPPKPKKSTGAKKKVSKLNKRPSKISVVSVNERSKNERSVMQSIEQEEATNNEIVPTPKKTTAQIAQQPTPTLPQIIAKQEPEVAMKTMMLPPPSDPPPPPPPVAPHQPPPQLATSAQPPQPPVINSQLPRMSPAPAIPPSMAQPLLQSPSPGADIAIRRPSKEKTDEKSVDETGGSDKKKRTEVICSWIRLVLQNGVAGLKKEYRDSPNEAPEDIATSFLGNPTRNRYRNIPCCDITRVKLTDDPHFYIHANLVSSGPNPRRFICTQAPLNGTIEEFWKMIIVTGIEYIVMLCELVEKGKPKSAEYFPSQIGQTTKIGRLCTVTKESRVDIDKTLVMSTMRISKPGDNAVVKIVKHIHWRNWPDHGVPDNFLSPFRLLTVVKNCTKPIVVHCSAGVGRTGTLALILIILESICLPDFIGVPRLLAKLREERFRAVQTEMQYLYAHRCVLEYLALKKYVQSREDFAKFAKDYEQALAMCPKEA,not soluble
3,DQALATALPGKWIHLRILALANAHIVIDEVHTLDHYQTALLENILPILAKLKTKITFLTATMPSWQRTKLLTAYGGEDLQIPPTVFPAAETVLPGQFNRTLIDSDSTTIDFTMEETSYDHLVESHVKWHQTTRLNAPHARIGLICNTVKRAQEIAAALEKTNDRIVLLHSRMTTEHRRRSAELLESLLGPNGNRKTITVVGTQAIEASLDIDLDILRTELCPAPSLVQRAGRVWRRNDPYRSSRITADHKPISVVFIAEAEDWQVLPYLRAETSRTQRWLEKHNQMFLPQMAQEFIDAATVDLDTATSEMDLDALALMGIHLMKADGAKARIQDVLNSDSKVSDFALLTSKNEIDEAQTRLIEEGTHLRIILGDENESIPGGWKHGLSSLLKLKASDRESLRTALLASIPLLVSEKQKQLLYQHN,not soluble
4,MSIPEELWRRFQEGDPRALARALTLVESGHPAGRELLKRVRGKGRAKVVGVTGSPGAGKSTLTDRLILEARKRGERVAVLAVDPSSPFSGGAILGDRIRMMRHHQDPGVYIRSMASRGALGGLAGATVAALSLLEAFGFDRIFVETVGVGQSEVDIARVADTTLLVLTPAAGDAVQAFKAGVMEIADVFAVNKFDLPGGERIVQELKSALELSPPRPGGWRPPIHPTVAASGEGVEALFESLEAHHRHLVEHGLLEAHRLERARFEVESVIQEWGRQRTQGAGALVARVARGELTPEEAALALLGPGPEAEEGAL,soluble
5,FVKSGWLLRQSTILKRWKKNWFDLWSDGHLIYYDDQTRQSIEDKVHMPVDCINIRTGHECRDIQPPDGKPRDCLLQIVCRDGKTISLCAESTDDCLAWKFTLQDSRT,soluble
6,MDVEKIALKHALINAIEHGGKANLKAVIGKVLGENPELRPRAKEIIPIINKVVEEVNSLARDEQLEKLKDIYPEYFEKKEEKKEKKGLPLLPKAEKGKVVTRFAPNPDGAFHLGNARAAILSYEYAKMYGGKFILRFDDTDPKVKRPEPIFYKMIIEDLEWLGIKPDEIVYASDRLEIYYKYAEELIKMGKAYVCTCPPEKFRELRDKGIPCPHRDEPVEVQLERWKKMLNGEYKEGEAVVRIKTDLNHPNPAVRDWPALRIIDNPNHPRTGNKYRVWPLYNFASAIDDHELGVTHIFRGQEHAENETRQRYIYEYFGWEYPVTIHHGRLSIEGVVLSKSKTRKGIEEGKYLGWDDPRLGTIRALRRRGILPEAIKELIIEVGLKKSDATISWENLAAINRKLVDPIANRYFFVADPIPMEVEGAPEFIAEIPLHPDHPERGVRRLKFTPERPVYVSKDDLNLLKPGNFVRLKDLFNVEILEVGDKIRARFYSFEYEIAKKNRWKMVHWVTEGRPCEVIIPEGDELVVRKGLLEKDAKVQVNEIVQFERFGFVRIDRIEGDKVIAIYAHK,soluble
7,MGSDKIHHHHHHLLGDDPFLVINGDVFIDTLPVMPELKSINPDNGCLAHLWLVENPSQHPNGDFGFVSQEGVTTAELSQGPLSADLKLNFTFSGIGLYHPQLFDDIPEGPVPLGPLLREKMALGQVQGQLHRSFWCDVGTLERLAQLETRLELAARR,not soluble
8,MNHLTNQYVMLHDEKRCIGCQACTVACKVLNDVPEGFSRVQVQIRAPEQASNALTHFQFVRVSCQHCENAPCVSVCPTGASYRDENGIVQVDKSRCIGCDYCVAACPFHVRYLNPQTGVADKCNFCADTRLAAGQSPACVSVCPTDALKFGRLDESEIQRWVGQKEVYRQQEARSGAVSLYRRKEVHQEGKA,not soluble
9,MDVEKLNLDNIISRLLEVRGSKPGKNVQLTESEIKGLCQKSREIFLSQPILLELEAPLKICGDVHGQYYDLLRLFEYGGFPPESNYLFLGDYVDRGKQSLETICLLLAYKIKYPENFFLLRGNHECASINRIYGFYDECKRRYNIKLWKTFTDCFNCLPVAAIIDEKIFCCHGGLSPDLQSMEQIRRIMRPTDVPDQGLLCDLLWSDPDKDVTGWGENDRGVSFTFGPEVVAKFLHKHDLDLICRAHQVVEDGYEFFAKRQLVTLFSAPNYCGEFDNAGSMMTVDETLMCSFQILKPADKKKYPYGAGGVGSNRPVTPPRNAPAAQPKKGAKK,not soluble
10,MQRVGNTFSNESRVASRCPSVGLAERNRVATMPVRLLRDSPAAQEDNDHARDGFQMKLDAHGFAPEELVVQVDGQWLMVTGQQQLDVRDPERVSYRMSQKVHRKMLPSNLSPTAMTCCLTPSGQLWVRGQCVALALPEAQTGPSPRLGSLGSKASNLTR,soluble
11,MGSDKIHHHHHHMASVMSNNNNNNNNNNASYMFTNPLSNTGGGLINEIKDAINEMEQLKVLELKQICKSLDLSITGKKAVLQDRIKQFLRKSCDIGHIDPWRPKAIKILIAKVRINSSLPKYSTLWETLKTGAFKHPVASGQLPVTALQSTALPPYSQQQALAYSFTSPFYKPIVQIPDANKKLKQSAGRGCTKMKFKVSKSNHDLLKSNKSYKLYLFSGFSIPFIYETVGHEAIDFPYPCELVFNGTKLEDNVKGLKKQNGTGNPANLTPYLKVPTEMNHLDLHYLNIDKEYSISCFIVEVFSPEALLGKILKRPKIIKQATTAYIKRTLNEQDDDDIITTSTVLSLQCPISCTRMKYPAKTDQCKHIQCFDALWFLHSQSQVPTWQCPICQHPIKFDQLKISEFVDNIIQNCNEDVEQVEISVDGSWKPIHNSSAVITDTVNQNHSVKNENQGTVKQEQDYDSRNAFDTNLRNGSNHNEPEIISLDSSDDEAFIPASKSFPTHVNPRNDQLRADIFPSESEGSSDYNPNHTSTPKGSPTMDQDNYQDAFQMRSFLNQGATTNINDTPTNNSSINSFVTATNGDSRIFYNRGPSTPLLPAVLQNLTNQTEAQRNPYGPNYNTTAQDRNLLGIEGDLPPIPPVDPNSEAETELPTRTTSAAHLPPYIHVSTSGHGDDGKIRKRRHSNVSIYIPKNPYATLMKRRPQANHAIMNKTLAQTNDFNTSAQDNSEVVDLTSD,not soluble
12,GPGSMSTMAASRSDTPAPVHEMSMERLRREYVSLKSTSYSLTVEESHLIRKIETLREESVRAVLNAEMKEEQVSNQLFRRLDGAEREVQRYQALLKEEESEAESLSGRIKEMRSQQTEVENALEERQEYLLMNLQRKLLDMARKKTAVEQELMAERQKYLDVLVTRLNMLRGRGVGSSTESSVTIHSQPSPAEANTVPVAKHLDVPLPTTAAPHISTPLLRTGVPLGDNHGMLPAEKPLREDAHTDAGLPLPFVLSPAISAQKKPKDGVIVNASRGNTSSTSGRLSASTTPLSADLTPRSSHSSETHHAVVALERKLNQLLLEQAAAMQRTSATEKQCAVLTAKLHAVQEATFLDRARASKMKEELEKARARLSEVKARDRSGIPFSPLDDTSVMSGSNASFDNSSPLVLSSLSLRERTRELLSSVPQPNANERPC,not soluble
13,MERKMATHFARGILTEGHLISVRLPSQCHQEARNIPPHRQSRFLASRGLLAELMFMLYGIGELPEIVTLPKGKPVFSDKNLPSFSISYAGNMVGVALTTEGECGLDMELQRATRGFHSPHAPDNHTFSSNESLWISKQNDPNEARAQLITLRRSVLKLTGDVLNDDPRDLQLLPIAGRLKCAHVNHVEALCDAEDVLVWSVAVTPTIEKLSVWELDGKHGWKSLPDIHSRANNPTSRMMRFAQLSTVKAFSPN,not soluble
14,MAASTSSSSSSSSSSLSSPSPCTWRYMTFTSFHGPDVRNTFLSHLRKQFNTNGITMFDDQRMERSQTLAPTLTQAIRESKIYIVLLSKNYASSSWCLDELLEILNCKEKRGQRVMTIFYGVNPSDVRKQTGEFGIAFNETCARKTEEERRKWSHALTCVGNITGVHVQDRDDEANMIEKIATDVSEKLNATESKDFDEMVGIKAHLTKIESLLSLDYDKVKIVGISGPAGIGKSTIARALHNLLSSSFHLSCFMENLISQSNPHSSLEYSSKLSLQEQLLSQVLNEKDIRIRHLGAIQERLHDQRVLIILDDVTSLEQLEVLANIKWYGPGSRIIVITKKKDILVQHGICDIYHVGFPTDADALKIFCLSAYRQTSPPDGSMKIHECEMFIKICGNLPLHLHVLGSALRGRSYGRVQSLCNLVSLADFV,not soluble
15,MSLYDTILFPTDGSNAAESVLEYALQIASEHEATIHILNVADTGRDSVTTIRGEVIDVLETEGERIVAEATQYAKDEGVPVVSAVLQGDPHKTIVDYSQQSDSDCIVMPTHGQRGIQRILLGSVTERVINTAEVPVIAVNPDRDRPLVYPPQHVLVPTDGSRGADLALTEGIAVARATDATLHLLHVVETGGLGPDARSVLKEGELTERANEIMAGATEKIDDTSLDTVTSVIEHGDPSKVICDYIDENEVDLAVMGTHGQTDFSRYVMGGVSAKLVRKSPVPVTWVREPESEGHHHHHH,soluble
16,MKLEASLKHFSPQGMHISDSVKETSPDRLTGTDIMVAIGTTSSRARFGLAAFFGKAGISKTDEQLAVQALVRHAMDTAPKNVRKAAGGEFGWCMLVLAQFAFAEYSRSAATSVTCHTCKGSGRITRTQTTRKVSYPWGKAPYWASKSRAVRPSDWEKWTEVTEIVPAVCEACDGKGTISARCRCGGKGEVLDRIATKERGVPVFKTCERCSGEGYSRVSSATVHRAILKRLPDLHQSSWSRNWKPFYEMLVDVLYKGERQAASEFEKATAY,not soluble
17,VRKRMVIGLSTGSDDDDVEVIGGVDPRLIAVQENDSDESSLTDLVEQPAKVMRIGTMIKQLLEEVRAAPLDEASRNRLRDIHATSIRELEDGLAPELREELDRLTLPFNEDAVPSDAELRIAQAQLVGWLEGLFHGIQTALFAQQMAARAQLQQMRQGALPPGVGKSGQHGHGTGQYL,soluble
18,SSSLHKSRIADFQDVLKEPSIALEKLRELSFSGIPCEGGLRCLCWKILLNYLPLERASWTSILAKQRELYAQFLREMIIQPGIAKANMGVSREDVTFEDHPLNPNPDSRWNTYFKDNEVLLQIDKDVRRLCPDISFFQRATDYPCLLILDPQNEFETLRKRVEQTTLKSQTVARNRSGVTNMSSPHKNSAPSSLNEYEVLPNGCEAHWEVVERILFIYAKLNPGIAYVQGMNEIVGPLYYTFATDPNSEWKEHAEADTFFCFTNLMAEIRDNFIKSLDDSQCGITYKMEKVYSTLKDKDVELYLKLQEQNIKPQFFAFRWLTLLLSQEFLLPDVIRIWDSLFADDNRFDFLLLVCCAMLMLIREQLLEGDFTVNMRLLQDYPITDVCQILQKAKELQDSK,soluble
19,MPILQELRLGKRISRDISLADLYQEWIELKILPSSRSEETKKKYLLRKNTIERLFGNKKVTQIRASEYQRIMNKYGQTVGRNFLGRLNTGIHQSIQMAIADKVLIDDFTQHVELFSSKLEHHHHHH,soluble
